In article PMC8028046 (2021):

Molecular target: amyloid-beta fibrils (Homo sapiens, UniProt P05067)
Test: SPR

Sequence of amyloid-beta fibrils (P05067 672-713): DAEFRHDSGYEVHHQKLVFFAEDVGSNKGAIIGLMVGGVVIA

B1: proSP-C BRICHOS BRICHOS (protein)
chain: TATFSIGSTGLVVYDYQQLLIAYKPAPGTCCYIMKIAPESIPSLEALTRKVHNFQMECSLQAKPAVPTSKLGQAEGRDAGSAPSGGDPAFLGMAVSTLCGEVPLYYI
Kd: ~130 nM
